Assays:
[1] = target: T1, human Factor XIa, activated form of coagulation factor XI (human, UniProt P03951 19-387; P03951 388-625); assay: ELISA
T1 construct: also called FXIa; human FXIa

[2] = target: T1, human Factor XIa, activated form of …; assay: cell-based or functional assay
[3] = target: T2, human FXII (human, UniProt P00748 20-615); assay: ELISA, antibody dilution series
T2 sequence (looked up): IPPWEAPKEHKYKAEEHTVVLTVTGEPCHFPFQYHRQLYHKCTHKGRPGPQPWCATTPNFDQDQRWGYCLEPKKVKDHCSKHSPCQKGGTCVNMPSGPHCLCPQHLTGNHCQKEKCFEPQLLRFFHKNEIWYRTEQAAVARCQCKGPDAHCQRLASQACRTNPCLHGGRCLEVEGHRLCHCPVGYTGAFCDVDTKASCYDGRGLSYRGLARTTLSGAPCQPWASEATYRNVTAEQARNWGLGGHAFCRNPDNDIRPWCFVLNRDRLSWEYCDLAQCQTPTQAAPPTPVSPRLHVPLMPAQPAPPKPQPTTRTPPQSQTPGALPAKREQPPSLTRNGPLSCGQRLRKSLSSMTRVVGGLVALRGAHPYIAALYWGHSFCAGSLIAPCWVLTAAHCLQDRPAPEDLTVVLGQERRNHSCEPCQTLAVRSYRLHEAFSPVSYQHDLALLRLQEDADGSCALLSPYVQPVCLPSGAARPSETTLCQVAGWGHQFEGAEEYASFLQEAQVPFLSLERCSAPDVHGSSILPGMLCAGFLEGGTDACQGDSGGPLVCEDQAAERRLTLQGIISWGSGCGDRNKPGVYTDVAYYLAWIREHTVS
Method: (§1) In this example, the binding ability of coagulation factors PK, PKa, FXII, FXIIa, FIX, FIXa, FX, FXa, FVIIa, and Thrombin to antibodies at a series of diluted concentrations was analyzed using ELISA.

[4] = target: human FIX (human, UniProt P00740 47-461); assay: ELISA, antibody dilution series
Method: as §1

[5] = target: human FIXa (human, UniProt P00740 47-191; P00740 227-461); assay: ELISA, antibody dilution series
Method: as §1

[6] = target: human FX (human, UniProt P00742 41-488); assay: ELISA, antibody dilution series
Method: as §1

[7] = target: human FXa (human, UniProt P00742 41-179; P00742 235-488, limits assumed); assay: ELISA, antibody dilution series
Method: as §1

[8] = target: T3, human FVIIa (human, UniProt P08709 61-212; P08709 213-466); assay: ELISA, antibody dilution series
T3 sequence (looked up) 1: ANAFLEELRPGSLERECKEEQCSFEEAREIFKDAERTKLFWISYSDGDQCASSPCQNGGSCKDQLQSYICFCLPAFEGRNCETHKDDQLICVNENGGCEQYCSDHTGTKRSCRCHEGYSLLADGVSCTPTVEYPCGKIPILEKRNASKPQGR
T3 sequence (looked up) 2: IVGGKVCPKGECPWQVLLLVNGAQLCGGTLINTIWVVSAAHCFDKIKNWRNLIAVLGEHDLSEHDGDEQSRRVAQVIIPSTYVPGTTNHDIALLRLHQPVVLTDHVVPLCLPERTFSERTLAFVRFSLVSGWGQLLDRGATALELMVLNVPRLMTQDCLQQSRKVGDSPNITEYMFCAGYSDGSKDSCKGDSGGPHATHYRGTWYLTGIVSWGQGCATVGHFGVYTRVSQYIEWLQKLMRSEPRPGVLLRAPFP
Method: as §1

[9] = target: human Thrombin (human, UniProt P00734 328-363; P00734 364-622); assay: ELISA, antibody dilution series
Method: as §1

[10] = target: human PK (human, UniProt P03952 20-638); assay: ELISA, antibody dilution series
Method: as §1

[11] = target: T1, human Factor XIa, activated form of …; assay: SPR, BIAcore T200, antibody captured on Protein A chip, FXIa as analyte, 1:1 Langmuir fit
Method: (2) Sample testing conditions: The binding characteristics of FXIa and antibodies were preliminarily determined and evaluated in a manual mode. 10 nM was determined as the maximum analytical concentration of FXIa. […] During the sample analysis, the flow rate was set to be 30 μL/min, the binding time was 120 s, and the dissociation time was 600 s.
(3) Regeneration conditions: With reference to other experiments, preliminary determination and evaluation were performed in a manual mode. […] During the regeneration, the flow rate was set to be 30 μL/min, and the regeneration time was 30 s.
(4) Kinetic parameter determination: The experiment was carried out in a multi-cycle mode, in which the response signal took the analysis time as the horizontal coordinate and the response value as the vertical coordinate. The obtained data were fitted by BIAcore T200 analysis software, during which a 1:1 Langmuir binding model was used as a fitting model, so as to determine the kinetic constants such as an association rate constant, a dissociation rate constant, and an association-dissociation constant.

EC50 [1]: 0.056 nM | IC50 (nM), inhibition of human FXIa hydrolysis of S-2366 [2]: 47.3 nM | binding result [3]: no binding | binding result [4]: no binding | binding result [5]: no binding | binding result [6]: no binding | binding result [7]: no binding | binding result [8]: no binding | binding result [9]: no binding | binding result [10]: no binding | Kd [11]: 0.0231 nM | koff [11]: 0.00245 s⁻¹ | kon [11]: 1.06e+08 M⁻¹ s⁻¹
B1: anti-human FXIa full-length human monoclonal antibody 14624 (antibody, IgG1, V domains shown)
VH: QVQLVQSGAEVKKPGASVKVSCKVSGYTLTELSMHWVRQAPGKGLEWMGGFDPEDGETIYAQKFQGRVTMTEDTSTDTAYMELSSLRSEDTAVYYCATDRPVRGVIPYYYYYGMDVWGQGTLVTVSS
VL: QSALTQPPSASGTPGQTVTISCSGSRSNIGSRPVNWYQHLPGTAPKLLIYIDHQRPSGVPDRFSGSKSGTSASLAISGLQSDDEADYYCAAWDDSLDAYVFGTGTKVTVL
notes: Full-length IgG1 made in CHO cells
